Test results as given in publication PMC10786891, “Massively parallel profiling of RNA-targeting CRISPR-Cas13d”.

Molecular target: T1, EsCas13d, nuclease-dead (Eubacterium siraeum, UniProt B0MS50, R295A;H300A;R849A;H854A)
T1 sequence: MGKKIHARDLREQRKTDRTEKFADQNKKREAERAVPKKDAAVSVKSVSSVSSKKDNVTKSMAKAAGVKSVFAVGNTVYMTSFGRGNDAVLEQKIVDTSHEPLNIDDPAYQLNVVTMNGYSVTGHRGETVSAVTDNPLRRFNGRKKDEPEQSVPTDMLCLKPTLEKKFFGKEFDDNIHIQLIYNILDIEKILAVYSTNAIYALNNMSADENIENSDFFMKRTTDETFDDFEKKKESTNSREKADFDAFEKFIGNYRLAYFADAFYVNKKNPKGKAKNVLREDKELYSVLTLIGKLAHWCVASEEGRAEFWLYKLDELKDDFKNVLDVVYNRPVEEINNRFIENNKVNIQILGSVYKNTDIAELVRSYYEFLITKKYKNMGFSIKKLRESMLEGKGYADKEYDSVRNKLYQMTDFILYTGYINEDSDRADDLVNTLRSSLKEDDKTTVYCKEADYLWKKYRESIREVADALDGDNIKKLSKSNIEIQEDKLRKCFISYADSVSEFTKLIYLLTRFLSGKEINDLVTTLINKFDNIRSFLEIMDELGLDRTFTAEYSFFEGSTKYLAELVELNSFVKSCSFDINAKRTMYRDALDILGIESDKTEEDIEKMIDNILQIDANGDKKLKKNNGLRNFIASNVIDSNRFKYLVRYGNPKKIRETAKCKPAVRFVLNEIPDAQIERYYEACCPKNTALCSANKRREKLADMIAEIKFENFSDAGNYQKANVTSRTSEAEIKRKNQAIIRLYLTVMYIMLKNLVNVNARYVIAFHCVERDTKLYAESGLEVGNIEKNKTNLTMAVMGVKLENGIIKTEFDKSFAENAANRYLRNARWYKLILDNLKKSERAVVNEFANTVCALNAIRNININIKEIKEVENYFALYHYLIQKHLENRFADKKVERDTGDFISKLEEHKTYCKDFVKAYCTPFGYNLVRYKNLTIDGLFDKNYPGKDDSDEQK
Experiment: crRNA (strand 1, pre-loaded); Mg2+; 40 mM Tris-HCl pH 7.5, 150 mM NaCl, 6 mM MgCl2, 1 mM DTT, 0.1% Tween-20, 0.2 mg/ml BSA; 25 C; 10 min per concentration, then washed
Settings: tags: His6-TwinStrep-SUMO cleaved; N-terminal SNAP kept (SNAP-Surface 488); label: 3' end held by stalled T7 RNA polymerase

B1: target 1 insG 3' of 14,insC 3' of 8 (mixed)
RNA 1: CACCCGUGCAAAAAUGCAGGGGUCUAAAACUGAGCGGAUAACCUCUCUAUGG
RNA 2: GGGAAUGGAUCCACAUCUACGAAUUCGUACCAUAGAGAGGGUUAUCCCGCUCACCGAGAUCGGAAGAGCACACGU
B1 was tested. Which Kd did it give?
The Kd was 41 ± 5 nM.

B2: target 1 insA 3' of 22,insC 3' of 14 (mixed)
RNA 1: CACCCGUGCAAAAAUGCAGGGGUCUAAAACUGAGCGGAUAACCUCUCUAUGG
RNA 2: GGGAAUGGAUCCACAUCUACGAAUUCGUACACAUAGAGACGGUUAUCCGCUCACCGAGAUCGGAAGAGCACACGU
With B2 as the binder, how does the Kd read?
Its Kd is 36 ± 6 nM.

B3: target 1 U8A,A9C (mixed)
RNA 1: CACCCGUGCAAAAAUGCAGGGGUCUAAAACUGAGCGGAUAACCUCUCUAUGG
RNA 2: GGGAAUGGAUCCACAUCUACGAAUUCGUACCAUAGAGAGGUUCACCGCUCACCGAGAUCGGAAGAGCACACGU
With B3 as the binder, how does the Kd read?
Its Kd is 8.9 ± 0.4 nM.

B4: target 1 insC 3' of 5,insA 3' of 2 (mixed)
RNA 1: CACCCGUGCAAAAAUGCAGGGGUCUAAAACUGAGCGGAUAACCUCUCUAUGG
RNA 2: GGGAAUGGAUCCACAUCUACGAAUUCGUACCAUAGAGAGGUUAUCCGCCUCAACCGAGAUCGGAAGAGCACACGU
For B4, which Kd is on record?
The Kd was 7.87 ± 0.33 nM.

B5: target 1 C4A,C22U (mixed)
RNA 1: CACCCGUGCAAAAAUGCAGGGGUCUAAAACUGAGCGGAUAACCUCUCUAUGG
RNA 2: GGGAAUGGAUCCACAUCUACGAAUUCGUAUCAUAGAGAGGUUAUCCGAUCACCGAGAUCGGAAGAGCACACGU
For B5, which Kd is on record?
The Kd was 9.2 ± 1 nM.

B6: target 1 G15A,U19A (mixed)
RNA 1: CACCCGUGCAAAAAUGCAGGGGUCUAAAACUGAGCGGAUAACCUCUCUAUGG
RNA 2: GGGAAUGGAUCCACAUCUACGAAUUCGUACCAAAGAAAGGUUAUCCGCUCACCGAGAUCGGAAGAGCACACGU
B6 was tested. Which Kd did it give?
The Kd was 60 ± 19 nM.

B7: target 1 insG 3' of 4,insG 3' of 2 (mixed)
RNA 1: CACCCGUGCAAAAAUGCAGGGGUCUAAAACUGAGCGGAUAACCUCUCUAUGG
RNA 2: GGGAAUGGAUCCACAUCUACGAAUUCGUACCAUAGAGAGGUUAUCCGCGUCGACCGAGAUCGGAAGAGCACACGU
With B7 as the binder, how does the Kd read?
The Kd was 4.72 ± 0.29 nM.

B8: target 1 insU 3' of 18,insC 3' of 13 (mixed)
RNA 1: CACCCGUGCAAAAAUGCAGGGGUCUAAAACUGAGCGGAUAACCUCUCUAUGG
RNA 2: GGGAAUGGAUCCACAUCUACGAAUUCGUACCAUAUGAGAGCGUUAUCCGCUCACCGAGAUCGGAAGAGCACACGU
With B8 as the binder, how does the Kd read?
Its Kd is 49 ± 7 nM.

B9: target 1 A9G,A18C (mixed)
RNA 1: CACCCGUGCAAAAAUGCAGGGGUCUAAAACUGAGCGGAUAACCUCUCUAUGG
RNA 2: GGGAAUGGAUCCACAUCUACGAAUUCGUACCAUCGAGAGGUUGUCCGCUCACCGAGAUCGGAAGAGCACACGU
Which Kd does the source give for B9 here?
Its Kd is 64 ± 7 nM.

B10: target 1 C4A,U11A (mixed)
RNA 1: CACCCGUGCAAAAAUGCAGGGGUCUAAAACUGAGCGGAUAACCUCUCUAUGG
RNA 2: GGGAAUGGAUCCACAUCUACGAAUUCGUACCAUAGAGAGGAUAUCCGAUCACCGAGAUCGGAAGAGCACACGU
With B10 as the binder, how does the Kd read?
Its Kd is 23.9 ± 1.8 nM.

B11: target 1 U19C,C21U (mixed)
RNA 1: CACCCGUGCAAAAAUGCAGGGGUCUAAAACUGAGCGGAUAACCUCUCUAUGG
RNA 2: GGGAAUGGAUCCACAUCUACGAAUUCGUACUACAGAGAGGUUAUCCGCUCACCGAGAUCGGAAGAGCACACGU
For B11, which Kd is on record?
The Kd was 5.98 ± 0.2 nM.

B12: target 1 insU 3' of 9,insA 3' of 8 (mixed)
RNA 1: CACCCGUGCAAAAAUGCAGGGGUCUAAAACUGAGCGGAUAACCUCUCUAUGG
RNA 2: GGGAAUGGAUCCACAUCUACGAAUUCGUACCAUAGAGAGGUUAUUACCGCUCACCGAGAUCGGAAGAGCACACGU
For B12, which Kd is on record?
Its Kd is 9.8 ± 0.4 nM.

B13: target 1 A9C,A16G (mixed)
RNA 1: CACCCGUGCAAAAAUGCAGGGGUCUAAAACUGAGCGGAUAACCUCUCUAUGG
RNA 2: GGGAAUGGAUCCACAUCUACGAAUUCGUACCAUAGGGAGGUUCUCCGCUCACCGAGAUCGGAAGAGCACACGU
Which Kd does the source give for B13 here?
Its Kd is 68 ± 27 nM.

B14: target 1 C2G,U11A (mixed)
RNA 1: CACCCGUGCAAAAAUGCAGGGGUCUAAAACUGAGCGGAUAACCUCUCUAUGG
RNA 2: GGGAAUGGAUCCACAUCUACGAAUUCGUACCAUAGAGAGGAUAUCCGCUGACCGAGAUCGGAAGAGCACACGU
How did the Kd turn out when B14 was run?
The Kd was 13.6 ± 1.1 nM.

B15: target 1 A9G,U19G (mixed)
RNA 1: CACCCGUGCAAAAAUGCAGGGGUCUAAAACUGAGCGGAUAACCUCUCUAUGG
RNA 2: GGGAAUGGAUCCACAUCUACGAAUUCGUACCAGAGAGAGGUUGUCCGCUCACCGAGAUCGGAAGAGCACACGU
For B15, which Kd is on record?
The Kd was 49 ± 14 nM.

B16: target 1 insU 3' of 14,insG 3' of 8 (mixed)
RNA 1: CACCCGUGCAAAAAUGCAGGGGUCUAAAACUGAGCGGAUAACCUCUCUAUGG
RNA 2: GGGAAUGGAUCCACAUCUACGAAUUCGUACCAUAGAGAUGGUUAUGCCGCUCACCGAGAUCGGAAGAGCACACGU
B16 was tested. Which Kd did it give?
The Kd was 38.1 ± 2.5 nM.

B17: target 1 G5C,C6U (mixed)
RNA 1: CACCCGUGCAAAAAUGCAGGGGUCUAAAACUGAGCGGAUAACCUCUCUAUGG
RNA 2: GGGAAUGGAUCCACAUCUACGAAUUCGUACCAUAGAGAGGUUAUCUCCUCACCGAGAUCGGAAGAGCACACGU
How did the Kd turn out when B17 was run?
The Kd was 11.6 ± 0.4 nM.

B18: target 1 insG 3' of 16,insA 3' of 15 (mixed)
RNA 1: CACCCGUGCAAAAAUGCAGGGGUCUAAAACUGAGCGGAUAACCUCUCUAUGG
RNA 2: GGGAAUGGAUCCACAUCUACGAAUUCGUACCAUAGAGGAAGGUUAUCCGCUCACCGAGAUCGGAAGAGCACACGU
B18 was tested. Which Kd did it give?
Its Kd is 17.5 ± 0.9 nM.

B19: target 1 C4A,U10C (mixed)
RNA 1: CACCCGUGCAAAAAUGCAGGGGUCUAAAACUGAGCGGAUAACCUCUCUAUGG
RNA 2: GGGAAUGGAUCCACAUCUACGAAUUCGUACCAUAGAGAGGUCAUCCGAUCACCGAGAUCGGAAGAGCACACGU
With B19 as the binder, how does the Kd read?
Its Kd is 5.53 ± 0.31 nM.

B20: target 1 G5U,C6A (mixed)
RNA 1: CACCCGUGCAAAAAUGCAGGGGUCUAAAACUGAGCGGAUAACCUCUCUAUGG
RNA 2: GGGAAUGGAUCCACAUCUACGAAUUCGUACCAUAGAGAGGUUAUCAUCUCACCGAGAUCGGAAGAGCACACGU
How did the Kd turn out when B20 was run?
Its Kd is 24.3 ± 1.6 nM.

B21: target 1 insC 3' of 16,insC 3' of 16 (mixed)
RNA 1: CACCCGUGCAAAAAUGCAGGGGUCUAAAACUGAGCGGAUAACCUCUCUAUGG
RNA 2: GGGAAUGGAUCCACAUCUACGAAUUCGUACCAUAGACCGAGGUUAUCCGCUCACCGAGAUCGGAAGAGCACACGU
B21 was tested. Which Kd did it give?
The Kd was 72 ± 22 nM.

B22: target 1 C4A,G5A (mixed)
RNA 1: CACCCGUGCAAAAAUGCAGGGGUCUAAAACUGAGCGGAUAACCUCUCUAUGG
RNA 2: GGGAAUGGAUCCACAUCUACGAAUUCGUACCAUAGAGAGGUUAUCCAAUCACCGAGAUCGGAAGAGCACACGU
How did the Kd turn out when B22 was run?
The Kd was 44 ± 7 nM.

B23: target 1 U10G,U19G (mixed)
RNA 1: CACCCGUGCAAAAAUGCAGGGGUCUAAAACUGAGCGGAUAACCUCUCUAUGG
RNA 2: GGGAAUGGAUCCACAUCUACGAAUUCGUACCAGAGAGAGGUGAUCCGCUCACCGAGAUCGGAAGAGCACACGU
B23 was tested. Which Kd did it give?
The Kd was 90 ± 40 nM.

B24: target 1 insG 3' of 18,insG 3' of 8 (mixed)
RNA 1: CACCCGUGCAAAAAUGCAGGGGUCUAAAACUGAGCGGAUAACCUCUCUAUGG
RNA 2: GGGAAUGGAUCCACAUCUACGAAUUCGUACCAUAGGAGAGGUUAUGCCGCUCACCGAGAUCGGAAGAGCACACGU
How did the Kd turn out when B24 was run?
The Kd was 50 ± 4 nM.

B25: target 1 insU 3' of 20,insG 3' of 14 (mixed)
RNA 1: CACCCGUGCAAAAAUGCAGGGGUCUAAAACUGAGCGGAUAACCUCUCUAUGG
RNA 2: GGGAAUGGAUCCACAUCUACGAAUUCGUACCAUUAGAGAGGGUUAUCCGCUCACCGAGAUCGGAAGAGCACACGU
For B25, which Kd is on record?
Its Kd is 18.9 ± 0.9 nM.

B26: target 1 G12U,U19G (mixed)
RNA 1: CACCCGUGCAAAAAUGCAGGGGUCUAAAACUGAGCGGAUAACCUCUCUAUGG
RNA 2: GGGAAUGGAUCCACAUCUACGAAUUCGUACCAGAGAGAGUUUAUCCGCUCACCGAGAUCGGAAGAGCACACGU
Which Kd does the source give for B26 here?
Its Kd is 35 ± 5 nM.

B27: target 1 C6G,C7U (mixed)
RNA 1: CACCCGUGCAAAAAUGCAGGGGUCUAAAACUGAGCGGAUAACCUCUCUAUGG
RNA 2: GGGAAUGGAUCCACAUCUACGAAUUCGUACCAUAGAGAGGUUAUUGGCUCACCGAGAUCGGAAGAGCACACGU
How did the Kd turn out when B27 was run?
Its Kd is 8.06 ± 0.32 nM.

B28: target 1 insG 3' of 14,insG 3' of 6 (mixed)
RNA 1: CACCCGUGCAAAAAUGCAGGGGUCUAAAACUGAGCGGAUAACCUCUCUAUGG
RNA 2: GGGAAUGGAUCCACAUCUACGAAUUCGUACCAUAGAGAGGGUUAUCCGGCUCACCGAGAUCGGAAGAGCACACGU
B28 was tested. Which Kd did it give?
Its Kd is 10.7 ± 0.9 nM.
